Experimental data reported in PMC10828496 (Cell Discovery, 2024).

Legend:
[1] = molecular target: T1, METTL15^70–407 (Homo sapiens, UniProt A6NJ78); assay: isothermal titration calorimetry; format: binding
T1 construct: residues 70-407; N-terminal SUMO tag cleaved with ULP1; E. coli Rosetta (DE3)
T1 sequence (A6NJ78 70-407): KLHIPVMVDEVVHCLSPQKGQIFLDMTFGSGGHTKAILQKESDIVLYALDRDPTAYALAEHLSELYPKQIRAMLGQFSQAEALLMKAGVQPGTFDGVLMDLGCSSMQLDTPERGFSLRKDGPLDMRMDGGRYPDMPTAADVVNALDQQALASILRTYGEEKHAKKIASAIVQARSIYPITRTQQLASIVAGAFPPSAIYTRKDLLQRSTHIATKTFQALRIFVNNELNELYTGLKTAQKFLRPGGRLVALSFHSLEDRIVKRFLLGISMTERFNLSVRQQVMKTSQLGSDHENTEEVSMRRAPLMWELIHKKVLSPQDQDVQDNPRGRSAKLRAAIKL

[2] = molecular target: T2, METTL15^70–407 (Homo sapiens, UniProt A6NJ78, D119A); assay: isothermal titration calorimetry; format: binding
T2 construct: residues 70-407; N-terminal SUMO tag cleaved with ULP1; E. coli Rosetta (DE3)
T2 sequence (A6NJ78 70-407 D119A): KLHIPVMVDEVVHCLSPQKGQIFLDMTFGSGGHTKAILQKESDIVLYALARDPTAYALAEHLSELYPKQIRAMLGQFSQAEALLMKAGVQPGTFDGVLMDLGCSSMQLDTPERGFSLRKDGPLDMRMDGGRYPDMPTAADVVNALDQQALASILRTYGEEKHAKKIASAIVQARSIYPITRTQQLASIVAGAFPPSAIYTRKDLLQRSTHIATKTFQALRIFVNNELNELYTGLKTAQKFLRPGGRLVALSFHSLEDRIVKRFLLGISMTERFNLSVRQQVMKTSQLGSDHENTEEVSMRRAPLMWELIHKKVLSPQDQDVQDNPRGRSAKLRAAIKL

[3] = molecular target: T3, METTL15 WT (Homo sapiens, UniProt A6NJ78 70-407); assay: fluorescence polarization; FP: dilution buffer B (50 mM Na2HPO4, 150 mM NaCl, pH 7.0), 20 C, 15 min incubation, 80 nM FAM-RNA stock mixed 1:1 (40 nM final); 1:1 binding model; conditions: protein: recombinant, tags: SUMO tag removed (ULP1), label: 5'-FAM
T3 sequence: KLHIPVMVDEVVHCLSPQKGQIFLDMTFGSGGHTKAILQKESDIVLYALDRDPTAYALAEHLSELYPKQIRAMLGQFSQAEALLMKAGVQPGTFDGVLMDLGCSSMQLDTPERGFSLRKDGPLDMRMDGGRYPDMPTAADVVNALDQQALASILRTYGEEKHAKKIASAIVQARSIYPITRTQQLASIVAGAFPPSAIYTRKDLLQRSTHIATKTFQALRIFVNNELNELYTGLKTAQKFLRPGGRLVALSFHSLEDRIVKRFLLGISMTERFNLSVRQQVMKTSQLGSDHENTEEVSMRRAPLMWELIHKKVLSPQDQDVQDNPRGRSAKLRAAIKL

[4] = molecular target: T4, METTL15 WT;hsRBFA C-terminal helix (Homo sapiens;Homo sapiens, UniProt A6NJ78;Q8N0V3 70-407;226-260, |); assay: fluorescence polarization; +hsRBFA 226-260; FP: dilution buffer B (50 mM Na2HPO4, 150 mM NaCl, pH 7.0), 20 C, 15 min incubation, 80 nM FAM-RNA stock mixed 1:1 (40 nM final); 1:1 binding model; conditions: protein: recombinant;recombinant, tags: SUMO tag removed (ULP1);GST tag removed (TEV), copies: 1;1, label: 5'-FAM
T4 sequence 1: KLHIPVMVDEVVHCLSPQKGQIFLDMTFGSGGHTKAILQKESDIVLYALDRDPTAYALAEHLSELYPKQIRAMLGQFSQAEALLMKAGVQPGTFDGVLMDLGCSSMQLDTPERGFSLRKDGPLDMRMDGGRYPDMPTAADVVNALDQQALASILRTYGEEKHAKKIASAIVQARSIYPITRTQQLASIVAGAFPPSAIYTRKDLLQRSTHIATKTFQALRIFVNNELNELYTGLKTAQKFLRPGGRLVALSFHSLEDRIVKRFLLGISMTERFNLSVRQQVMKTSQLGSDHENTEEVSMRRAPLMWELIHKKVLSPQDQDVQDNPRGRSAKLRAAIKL
T4 sequence 2: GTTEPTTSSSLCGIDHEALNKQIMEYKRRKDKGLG

[5] = molecular target: METTL15^70–407 (human METTL15, residues 70–407), wild type (human, UniProt A6NJ78 70-407); assay: ITC; Microcal PEAQ-ITC, 20 °C, buffer B (50 mM Na2HPO4, 150 mM NaCl, pH 7.0); hsRBFA 600 μM and METTL15 40 μM; single binding site model; conditions: both partners purified
[6] = molecular target: METTL15^70–407 D209A (human, UniProt A6NJ78 70-407, D209A); assay: as above; conditions: both partners purified
[7] = molecular target: METTL15^70–407 N212A (human, UniProt A6NJ78 70-407, N212A); assay: as above; conditions: both partners purified
[8] = molecular target: T5, METTL15 H231A/K234A/F262A (Homo sapiens, UniProt A6NJ78 70-407, H231A;K234A;F262A); assay: fluorescence polarization; FP: dilution buffer B (50 mM Na2HPO4, 150 mM NaCl, pH 7.0), 20 C, 15 min incubation, 80 nM FAM-RNA stock mixed 1:1 (40 nM final); 1:1 binding model; conditions: protein: recombinant; tags: SUMO tag removed (ULP1); label: 5'-FAM; hairpin
T5 sequence: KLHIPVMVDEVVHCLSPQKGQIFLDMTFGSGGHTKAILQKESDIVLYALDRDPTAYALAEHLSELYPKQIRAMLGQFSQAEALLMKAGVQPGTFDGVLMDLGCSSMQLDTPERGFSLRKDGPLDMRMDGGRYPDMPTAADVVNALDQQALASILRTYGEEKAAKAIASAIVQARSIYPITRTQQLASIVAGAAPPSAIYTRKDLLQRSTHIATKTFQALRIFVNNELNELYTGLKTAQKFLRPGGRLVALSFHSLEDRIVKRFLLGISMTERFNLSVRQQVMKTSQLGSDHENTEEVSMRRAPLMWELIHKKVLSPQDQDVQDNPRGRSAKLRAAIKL

[9] = molecular target: T6, METTL15 F262A/P263A/K270A (Homo sapiens, UniProt A6NJ78 70-407, F262A;P263A;R270A); assay: as above; conditions: protein: recombinant; tags: SUMO tag removed (ULP1); label: 5'-FAM; hairpin
T6 sequence: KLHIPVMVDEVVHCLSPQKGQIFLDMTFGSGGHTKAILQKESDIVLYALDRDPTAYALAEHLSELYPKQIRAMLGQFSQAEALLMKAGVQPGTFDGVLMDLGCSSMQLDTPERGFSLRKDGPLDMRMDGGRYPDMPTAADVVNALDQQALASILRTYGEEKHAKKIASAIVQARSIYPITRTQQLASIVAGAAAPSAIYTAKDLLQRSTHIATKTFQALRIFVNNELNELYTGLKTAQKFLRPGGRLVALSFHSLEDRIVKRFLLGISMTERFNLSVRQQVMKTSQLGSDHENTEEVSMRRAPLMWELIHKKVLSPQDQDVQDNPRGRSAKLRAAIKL

[10] = molecular target: T7, METTL15 R327A/K330A/R331A (Homo sapiens, UniProt A6NJ78 70-407, R327A;K330A;R331A); assay: as above; conditions: protein: recombinant; tags: SUMO tag removed (ULP1); label: 5'-FAM; hairpin
T7 sequence: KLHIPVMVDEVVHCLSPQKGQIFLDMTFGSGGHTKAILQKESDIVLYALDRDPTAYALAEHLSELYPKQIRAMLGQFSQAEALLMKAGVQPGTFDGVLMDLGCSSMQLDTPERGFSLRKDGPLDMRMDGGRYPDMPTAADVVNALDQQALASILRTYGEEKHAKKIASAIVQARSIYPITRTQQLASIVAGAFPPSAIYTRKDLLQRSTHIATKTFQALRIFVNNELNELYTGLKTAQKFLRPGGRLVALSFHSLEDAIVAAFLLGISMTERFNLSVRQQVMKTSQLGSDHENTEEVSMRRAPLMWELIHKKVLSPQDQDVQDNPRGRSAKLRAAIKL

[11] = molecular target: T8, METTL15 K380A/K381A (Homo sapiens, UniProt A6NJ78 70-407, K380A;K381A); assay: as above; conditions: protein: recombinant; tags: SUMO tag removed (ULP1); label: 5'-FAM; hairpin
T8 sequence: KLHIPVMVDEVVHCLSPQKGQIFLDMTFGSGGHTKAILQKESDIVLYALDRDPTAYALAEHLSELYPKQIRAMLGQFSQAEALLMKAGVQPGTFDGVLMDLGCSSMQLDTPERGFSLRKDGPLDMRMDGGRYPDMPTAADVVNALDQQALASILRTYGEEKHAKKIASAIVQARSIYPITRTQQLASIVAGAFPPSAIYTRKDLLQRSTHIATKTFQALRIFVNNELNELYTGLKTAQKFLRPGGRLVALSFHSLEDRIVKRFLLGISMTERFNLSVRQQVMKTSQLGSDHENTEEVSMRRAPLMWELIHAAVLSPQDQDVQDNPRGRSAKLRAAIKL

C[S+](CC[C@H](N)C(=O)O)C[C@H]1O[C@@H](n2cnc3c(N)ncnc32)[C@H](O)[C@@H]1O (some centres unmarked) [SAM]
Kd [1]: 2.99 ± 0.36 µM
Kd [2]: 17.3 ± 0.31 µM

CGACCGGAAGCGGUCG (structured_RNA) [5'-FAM-h44_dsRNA2]
Kd ([3]; hairpin): 0.77 ± 0.05 µM

CGACACCGCCCGUAACGGUGUCG (structured_RNA) [5'-FAM-h44_dsRNA4]
Kd ([3]; hairpin): 2.33 ± 0.13 µM

CACACCGCCCGUCAC (ssRNA) [5'-FAM-h44_ssRNA3]
Kd [3]: 2.2 ± 0.33 µM
Kd [4]: 1.76 ± 0.16 µM

GTTEPTTSSSLCGIDHEALNKAIMEYKRRKDKGLG (domain or fragment, human, UniProt Q8N0V3 226-260, looked up) [hsRBFA^226–260 Q247A]
Kd [5]: 0.41 µM
dH [5]: -48.1 ± 0.837 kJ/mol

GTTEPTTSSSLCGIDHEALAKQIMEYKRRKDKGLG (domain or fragment, human, UniProt Q8N0V3 226-260, looked up) [hsRBFA^226–260 N245A]
Kd [5]: 0.61 µM
dH [5]: -44.4 ± 0.837 kJ/mol

GTTEPTTSSSLCGIDHEALNKQIMEYKRRKDKGLG (domain or fragment, UniProt Q8N0V3 226-260, looked up) [hsRBFA^226–260 (human hsRBFA, residues 226–260), wild type]
Kd [6]: 7.94 µM
dH [6]: -31.1 ± 1.34 kJ/mol
Kd [7]: 1.12 µM
dH [7]: -39.7 ± 1.42 kJ/mol

GTTEPTTSSSLCGIDHEALNKQIMEYARRKDKGLG (domain or fragment, human, UniProt Q8N0V3 226-260, looked up) [hsRBFA^226–260 K252A]
Kd [5]: 19.6 µM
dH [5]: -72 ± 13 kJ/mol

AAAAAAAAAAAAA (ssRNA) [5'-FAM-polyA13]
Kd [3]: 0.61 ± 0.11 µM

CGACCGCCCGUAACGGUCG (structured_RNA) [5'-FAM-h44_dsRNA1]
binding result [8]: no binding
binding result [9]: no binding
Kd ([3]; hairpin): 1.1 ± 0.09 µM
Kd [10]: 1.03 ± 0.15 µM
Kd [11]: 2.68 ± 0.29 µM
Kd ([4]; hairpin): 1.15 ± 0.08 µM
